Results as given in patent US20230159603A1 (published 2023).

B1: recombinant human IL-12 (rhIL-12) control (ligand)
chain 1: IWELKKDVYVVELDWYPDAPGEMVVLTCDTPEEDGITWTLDQSSEVLGSGKTLTIQVKEFGDAGQYTCHKGGEVLSHSLLLLHKKEDGIWSTDILKDQKEPKNKTFLRCEAKNYSGRFTCWWLTTISTDLTFSVKSSRGSSDPQGVTCGAATLSAERVRGDNKEYEYSVECQEDSACPAAEESLPIEVMVDAVHKLKYENYTSSFFIRDIIKPDPPKNLQLKPLKNSRQVEVSWEYPDTWSTPHSYFSLTFCVQVQGKSKREKKDRVFTDKTSATVICRKNASISVRAQDRYYSSSWSEWASVPCS
chain 2: RNLPVATPDPGMFPCLHHSQNLLRAVSNMLQKARQTLEFYPCTSEEIDHEDITKDKTSTVEACLPLELTKNESCLNSRETSFITNGSCLASRKTSFMMALCLSSIYEDLKMYQVEFKTMNAKLLMDPKRQIFLDQNMLAVIDELMQALNFNSETVPQKSSLEEPDFYKTKIKLCILLHAFRIRAVTIDRVMSYLNAS
B2: rhIL-12RB2-Fc (Fc fusion)
chain: KIDACKRGDVTVKPSHVILLGSTVNITCSLKPRQGCFHYSRRNKLILYKFDRRINFHHGHSLNSQVTGLPLGTTLFVCKLACINSDEIQICGAEIFVGVAPEQPQNLSCIQKGEQGTVACTWERGRDTHLYTEYTLQLSGPKNLTWQKQCKDIYCDYLDFGINLTPESPESNFTAKVTAVNSLGSSSSLPSTFTFLDIVRPLPPWDIRIKFQKASVSRCTLYWRDEGLVLLNRLRYRPSNSRLWNMVNVTKAKGRHDLLDLKPFTEYEFQISSKLHLYKGSWSDWSESLRAQTPEEEPTGMLDVWYMKRHIDYSRQQISLFWKNLSVSEARGKILHYQVTLQELTGGKAMTQNITGHTSWTTVIPRTGNWAVAVSAANSKGSSLPTRINIMNLCEAGLLAPRQVSANSEGMDNILVTWQPPRKDPSAVQEYVVEWRELHPGGDTQVPLNWLRSRPYNVSALISENIKSYICYEIRVYALSGDQGGCSSILGNSKHKAPLSGPHINAITEEKGSILISWNSIPVQEQMGCLLHYRIYWKERDSNSQPQLCEIPYRVSQNSHPINSLQPRVTYVLWMTALTAAGESSHGNEREFCLQGKAN

Tests used:
Experiment in all cases: SPR; KD estimated
rhIL-12RB2-Fc = target: B2
rhIL-12RB1-Fc = rhIL-12RB1-Fc (human, UniProt P42701 24-545)
AK384 = target: AK384

Row | Kd (rhIL-12RB2-Fc) [nM] | Kd (rhIL-12RB1-Fc) [nM] | Kd (AK384) [nM] | Binder
1 | 0.617 | 60.1 | – | B1
2 | – | – | 1.7 | B2
